Consider one molecule from patent US20230192839A1, “ANTIBODIES HAVING CONDITIONAL AFFINITY AND METHODS OF USE THEREOF” (PFIZER INC., priority 2017, published 2023).

For orientation: Kd means a measure of binding affinity in units of concentration.

One experiment relates to human CD33. Briefly: Biacore SPR binding kinetics of anti-CD33 scFv-Fc clones with or without 10 µM MTX. An outline of the steps:
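Kinetics by SPR at 37° C in 10 mM Hepes pH 7.4, 150 mM NaCl, 0.05% Tween-20, with or without 10 µM MTX. Double-referenced data fit globally to Langmuir with mass transport; KD = koff/kon. Where binding was too weak for kinetics, KD or KD limit estimated from response at highest analyte concentration or instrument detection limit.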

A further experiment deals with MV4-11 cells. The experiment is described as follows: Flow cytometry analysis of MTX-dependent CAR T cell activation (CD69) and proliferation (CellTrace). Format: cell-based, human. The following applies: 100 µM MTX vs 0 µM MTX, with target cells, FIG. 8. Here is the method: The anti-CD33 clone used in this example was P02_D09. CAR T cells containing this clone were generated in duplicate from PBMC cells from two different human donors. The target cell line used in this assay was MV4-11, as described in Example 5.
To assess activation of the conditional CAR T cells described above, in vitro cytotoxicity assays were carried out in 24-well plates by co-culturing 250,000 CAR T cells, with or without 250,000 MV4-11 cells. In addition, each of the co-cultures contained either 100 µM MTX or 0 µM MTX. In all conditions, 1 mM leucovorin was supplemented to circumvent MTX toxicity. Cells were collected after 24 hours of co-culture, labeled with fluorophore-conjugated antibody to CD69 (Biolegend) and analyzed by flow cytometry (BD LSR II). Activation was quantified via detection of the early activation marker, CD69.
To assess proliferative ability of the CAR T cells described above, the cells were prelabelled with the fluorescent intracellular dye, CellTrace Deep Red (Invitrogen), before co-culturing as described immediately above for the CAR T cell activation assay. The co-cultures were incubated for 7 days at 37 C with 5% CO2. On day 7, cells were collected and analyzed via flow cytometry. Dilution of the CellTrace dye (leftward shift of peaks in the histogram) was interpreted as T cell proliferation.
Background: In flow cytometry, cells or beads pass a laser one at a time.

[1] abbreviates: CD33, 0 µM MTX, 37° C., pH 7.4, scFv-Fc.

B1: P02_D09: anti-CD33 clone with conditional affinity; VH SEQ ID NO: 35, VL SEQ ID NO: 36; also as scFv in CAR (antibody, V domains shown)
VH: QVQLVESGGGLVQAGGSLRLSCAASRRSSRSWAMHWVRQAPGKGLEWVAVISYDGRLKYYADSVKGRFTISRDNAEYLVYLQMNSLRAEDTAVYYCAAEEGDGGFFDYWGQGTLVTVSS
VL: QSVLTQPPSASGTPGQRVTISCSGSSSNIGSNYVNWYQQLPGTAPKLLIYRNNERPSGVPDRFSGSKSGTSASLAISGLRSEDEADYYCAAWDGSLSGRGVFGTGTKLTVL
modifications: Synthetic Antibody
notes: also as scFv in CAR
Consider B1, for which the “affinity for CD33 in the presence of MTX as compared to absence (in words)” value with human CD33 (10 µM MTX vs 0 µM MTX) was “significantly greater affinity toward CD33 (i.e. lower KD) in the absence of MTX than in the presence of MTX”. Also, in the experiment on human CD33 (setting [1]), the “koff, kinetics toward antigen with 0 µM MTX” value was 0.018 s⁻¹ and the “kon, kinetics toward antigen with 0 µM MTX” value was determined as 40000 M⁻¹ s⁻¹. The Kd at human CD33 (CD33, 10 µM MTX, 37° C., pH 7.4, koff/kon, or estimated from binding response / limit of detection for weak interactions, read-out: KD, kinetics toward antigen with 10 µM MTX) was above 9.29 µM. Also, the “activation (CD69) in the presence of MTX” value with MV4-11 cells (24 hours) is “dramatically reduced”. Further, the “proliferation (CellTrace dilution) in the presence of MTX” value in the experiment on MV4-11 cells (7 days) is “dramatically reduced”.
